Results reported in patent US20060100138.

What was measured:
[1] = target: Synthetic human type I collagen
[2] = target: T1, Synthetic human type III collagen
T1 chain: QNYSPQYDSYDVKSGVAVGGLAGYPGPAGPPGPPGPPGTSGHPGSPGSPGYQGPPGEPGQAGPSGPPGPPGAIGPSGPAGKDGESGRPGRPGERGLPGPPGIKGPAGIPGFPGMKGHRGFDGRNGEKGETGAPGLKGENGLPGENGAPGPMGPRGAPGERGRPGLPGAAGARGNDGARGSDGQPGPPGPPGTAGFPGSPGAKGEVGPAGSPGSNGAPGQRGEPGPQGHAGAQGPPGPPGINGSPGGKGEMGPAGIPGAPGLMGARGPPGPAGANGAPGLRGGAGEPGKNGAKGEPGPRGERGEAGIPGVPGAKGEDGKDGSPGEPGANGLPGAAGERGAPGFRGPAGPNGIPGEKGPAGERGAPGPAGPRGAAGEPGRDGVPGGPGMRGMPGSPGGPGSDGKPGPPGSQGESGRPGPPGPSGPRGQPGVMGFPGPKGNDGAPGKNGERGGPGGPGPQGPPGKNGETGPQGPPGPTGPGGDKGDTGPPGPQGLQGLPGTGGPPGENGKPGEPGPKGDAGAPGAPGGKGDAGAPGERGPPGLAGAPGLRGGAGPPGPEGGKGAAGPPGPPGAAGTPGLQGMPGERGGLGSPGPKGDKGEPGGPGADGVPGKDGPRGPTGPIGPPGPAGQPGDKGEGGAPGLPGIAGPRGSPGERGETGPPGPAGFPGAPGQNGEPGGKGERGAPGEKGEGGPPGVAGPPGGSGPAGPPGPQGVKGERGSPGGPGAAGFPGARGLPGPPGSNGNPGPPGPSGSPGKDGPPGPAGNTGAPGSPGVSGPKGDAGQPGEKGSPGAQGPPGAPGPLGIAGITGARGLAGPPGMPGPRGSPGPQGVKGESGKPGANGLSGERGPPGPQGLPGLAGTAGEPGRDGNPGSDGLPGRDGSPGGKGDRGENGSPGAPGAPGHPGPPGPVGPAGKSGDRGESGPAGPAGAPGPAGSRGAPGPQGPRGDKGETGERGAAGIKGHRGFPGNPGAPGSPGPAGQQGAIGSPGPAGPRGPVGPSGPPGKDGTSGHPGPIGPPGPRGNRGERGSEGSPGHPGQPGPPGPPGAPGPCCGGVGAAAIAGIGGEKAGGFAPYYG

Chain of Synthetic human type I collagen (chain, as listed by the source, chain 1 of 2): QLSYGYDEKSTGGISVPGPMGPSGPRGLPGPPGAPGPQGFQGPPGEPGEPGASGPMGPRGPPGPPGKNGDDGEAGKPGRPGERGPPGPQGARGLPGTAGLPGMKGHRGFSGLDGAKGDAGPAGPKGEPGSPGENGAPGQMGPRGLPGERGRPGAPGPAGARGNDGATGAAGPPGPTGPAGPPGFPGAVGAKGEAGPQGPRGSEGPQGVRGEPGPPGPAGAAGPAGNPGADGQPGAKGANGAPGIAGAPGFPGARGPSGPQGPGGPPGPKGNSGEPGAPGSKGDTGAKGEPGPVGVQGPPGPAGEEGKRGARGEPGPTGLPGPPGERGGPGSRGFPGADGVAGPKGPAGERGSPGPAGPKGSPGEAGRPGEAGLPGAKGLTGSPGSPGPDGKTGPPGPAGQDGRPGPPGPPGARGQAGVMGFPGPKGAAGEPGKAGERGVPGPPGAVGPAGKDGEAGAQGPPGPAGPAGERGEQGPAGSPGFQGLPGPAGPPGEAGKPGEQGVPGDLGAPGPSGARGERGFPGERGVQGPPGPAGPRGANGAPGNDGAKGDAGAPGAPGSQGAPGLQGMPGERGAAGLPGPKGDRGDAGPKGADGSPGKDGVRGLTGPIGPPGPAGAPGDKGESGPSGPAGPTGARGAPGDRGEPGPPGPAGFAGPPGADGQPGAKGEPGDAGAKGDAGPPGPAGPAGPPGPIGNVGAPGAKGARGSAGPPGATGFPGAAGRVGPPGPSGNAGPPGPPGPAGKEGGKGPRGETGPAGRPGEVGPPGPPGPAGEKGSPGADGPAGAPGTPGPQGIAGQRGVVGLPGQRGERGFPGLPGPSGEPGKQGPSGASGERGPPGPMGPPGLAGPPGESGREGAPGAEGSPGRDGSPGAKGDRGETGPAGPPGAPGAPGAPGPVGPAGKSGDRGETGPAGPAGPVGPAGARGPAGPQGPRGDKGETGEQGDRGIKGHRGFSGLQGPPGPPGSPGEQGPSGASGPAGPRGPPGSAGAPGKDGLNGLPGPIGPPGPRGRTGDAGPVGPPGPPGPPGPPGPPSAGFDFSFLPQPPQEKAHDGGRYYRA
Chain of Synthetic human type I collagen (chain, as listed by the source, chain 2 of 2): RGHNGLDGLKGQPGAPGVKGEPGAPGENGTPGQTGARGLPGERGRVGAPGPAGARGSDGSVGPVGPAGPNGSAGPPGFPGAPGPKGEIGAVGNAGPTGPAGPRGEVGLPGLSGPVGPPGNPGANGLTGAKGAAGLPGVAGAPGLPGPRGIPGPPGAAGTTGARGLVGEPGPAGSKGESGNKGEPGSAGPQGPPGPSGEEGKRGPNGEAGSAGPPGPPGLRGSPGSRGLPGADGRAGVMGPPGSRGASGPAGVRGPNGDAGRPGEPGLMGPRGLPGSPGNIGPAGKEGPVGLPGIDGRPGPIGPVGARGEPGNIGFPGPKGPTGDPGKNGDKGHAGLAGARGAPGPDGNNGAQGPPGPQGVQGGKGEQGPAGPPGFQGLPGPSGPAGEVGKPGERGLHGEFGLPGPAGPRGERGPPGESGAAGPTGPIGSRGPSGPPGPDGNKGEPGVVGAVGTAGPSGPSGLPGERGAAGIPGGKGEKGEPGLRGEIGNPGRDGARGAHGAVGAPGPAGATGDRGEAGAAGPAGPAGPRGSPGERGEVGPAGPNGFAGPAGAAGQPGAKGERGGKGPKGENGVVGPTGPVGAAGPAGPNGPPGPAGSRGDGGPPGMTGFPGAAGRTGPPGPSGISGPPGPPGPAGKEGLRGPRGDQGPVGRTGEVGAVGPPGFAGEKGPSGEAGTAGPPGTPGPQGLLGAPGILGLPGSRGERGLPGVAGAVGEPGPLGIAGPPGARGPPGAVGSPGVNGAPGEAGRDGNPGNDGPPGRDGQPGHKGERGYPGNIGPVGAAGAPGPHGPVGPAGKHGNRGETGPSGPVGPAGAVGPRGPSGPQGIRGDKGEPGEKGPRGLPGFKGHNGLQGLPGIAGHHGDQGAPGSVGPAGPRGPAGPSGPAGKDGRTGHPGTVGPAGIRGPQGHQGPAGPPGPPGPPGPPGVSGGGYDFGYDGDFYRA

B1: MMP-1 (collagenase 1, fibroblast collagenase) (protein)
chain: FVLTEGNPRWEQTHLTYRIENYTPDLPRADVDHAIEKAFQLWSNVTPLTFTKVSEGQADIMISFVRGDHRDNSPFDGPGGNLAHAFQPGPGIGGDAHFDEDERWTNNFREYNLHRVAAHELGHSLGLSHSTDIGALMYPSYTFSGDVQLAQDDIDGIQAIYGRSQNPVQPIGPQTPKACDSKLTFDAITTIRGEVMFFKDRFYMRTNPFYPEVELNFISVFWPQLPNGLEAAYEFADRDEVRFFKGNKYWAVQGQNVLHGYPKDIYSSFGFPRTVKHIDAALSEENTGKTYFFVANKYWRYDEYKRSMDPGYPKMIAHDFPGIGHKVDAVFMKDGFFYFFHGTRQYKFDPKTKRILTLQKANSWFNCRKN
In the case of B1, the “cleavage of collagen (SDS-PAGE after 1, 2 and 7 days at 37 C)” value [1] is reported as “both synthetic human type I and type III collagen were cleaved by MMP-1 (FIG. 1A) and MMP-8 (FIG. 1B)”, the “cleavage of collagen (SDS-PAGE after 1, 2 and 7 days at 37 C)” value [2] is reported as “both synthetic human type I and type III collagen were cleaved by MMP-1 (FIG. 1A) and MMP-8 (FIG. 1B)” and the “extent of degradation of collagen (SDS-PAGE)” value [2] is reported as “Synthetic human type III collagen was degraded by MMP-1 to a greater extent than by MMP-8”.
